Reference: patent US20110039770A1 (PHARMAGAP, published 2011)
Read-outs that look alike come from different tables or passages of the source.

Key:
PKC-βI, purified isoform = molecular target: T1, PKC-βI, purified isoform (UniProt P05771-1 1-671); assay: purified isoform competition ELISA, summary grade
T1 construct: also called PKC-beta I; beta 1

[1] = molecular target: T2, PKC-ι in extracts of human cell lines (human, UniProt P41743 2-596); assay: Western-blot competition, cell extracts: PRE at 10X/20X the anti-PKC iota primary antibody concentration competes with that antibody; band densitometry (lower band = PRE bound)
T2 construct: Denatured on the Western blot membrane; also called PKC-iota (cell extract)
T2 sequence (looked up): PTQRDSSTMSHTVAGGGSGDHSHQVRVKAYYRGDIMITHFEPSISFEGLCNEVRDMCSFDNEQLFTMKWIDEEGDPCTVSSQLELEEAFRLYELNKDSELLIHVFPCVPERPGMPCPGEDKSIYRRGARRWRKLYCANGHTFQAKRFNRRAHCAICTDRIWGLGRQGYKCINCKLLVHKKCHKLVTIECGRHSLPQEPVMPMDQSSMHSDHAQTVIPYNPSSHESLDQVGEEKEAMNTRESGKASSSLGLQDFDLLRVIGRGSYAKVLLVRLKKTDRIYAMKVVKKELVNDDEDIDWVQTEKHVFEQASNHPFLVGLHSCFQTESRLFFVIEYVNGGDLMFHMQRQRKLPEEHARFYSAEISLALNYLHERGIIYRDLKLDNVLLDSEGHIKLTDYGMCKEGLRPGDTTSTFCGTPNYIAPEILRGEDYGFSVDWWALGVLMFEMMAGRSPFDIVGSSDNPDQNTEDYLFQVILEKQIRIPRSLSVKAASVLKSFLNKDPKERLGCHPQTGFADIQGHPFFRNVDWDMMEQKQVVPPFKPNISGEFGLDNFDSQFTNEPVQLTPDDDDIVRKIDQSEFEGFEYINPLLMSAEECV

PKC-ε, purified isoform [2] = molecular target: T3, PKC-ε, purified isoform (UniProt Q02156 1-737); assay: competition ELISA on coated purified PKC-ε vs anti-PKC ε antibody; PRE 100 µM
T3 construct: also called PKC-epsilon; epsilon
T3 sequence (looked up): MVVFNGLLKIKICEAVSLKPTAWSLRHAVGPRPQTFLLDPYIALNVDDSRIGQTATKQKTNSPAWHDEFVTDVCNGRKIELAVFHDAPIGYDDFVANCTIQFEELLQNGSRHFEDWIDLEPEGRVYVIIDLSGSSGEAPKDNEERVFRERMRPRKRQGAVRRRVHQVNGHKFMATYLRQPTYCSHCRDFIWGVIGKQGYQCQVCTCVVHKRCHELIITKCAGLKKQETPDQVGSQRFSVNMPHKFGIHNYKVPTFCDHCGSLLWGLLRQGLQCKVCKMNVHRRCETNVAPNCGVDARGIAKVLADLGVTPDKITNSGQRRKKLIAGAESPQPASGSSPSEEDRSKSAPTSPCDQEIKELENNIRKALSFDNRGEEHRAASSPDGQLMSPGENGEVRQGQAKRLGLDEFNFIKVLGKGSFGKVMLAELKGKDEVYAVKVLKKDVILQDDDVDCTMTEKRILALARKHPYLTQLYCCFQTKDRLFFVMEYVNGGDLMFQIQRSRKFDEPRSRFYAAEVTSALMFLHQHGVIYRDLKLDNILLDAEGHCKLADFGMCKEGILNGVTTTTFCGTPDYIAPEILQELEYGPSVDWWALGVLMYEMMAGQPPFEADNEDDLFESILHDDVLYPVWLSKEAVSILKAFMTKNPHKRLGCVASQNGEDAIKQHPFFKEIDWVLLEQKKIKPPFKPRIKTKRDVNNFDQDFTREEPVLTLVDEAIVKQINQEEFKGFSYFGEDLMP

PKC-ε, purified isoform [3] = molecular target: T3, PKC-ε, purified isoform; assay: competition ELISA on coated purified PKC-ε vs anti-PKC ε antibody; PRE 50 µM
PKC-ε, purified isoform [4] = molecular target: T3, PKC-ε, purified isoform; assay: competition ELISA on coated purified PKC-ε vs anti-PKC ε antibody; PRE 200 µM
[5] = molecular target: T4, PKC-ζ in extracts of human cell lines (human, UniProt Q05513 1-592); assay: Western-blot competition, cell extracts: PRE at 10X/20X the anti-PKC zeta primary antibody concentration competes with that antibody; band densitometry (lower band = PRE bound)
T4 construct: Denatured on the Western blot membrane; also called PKC-zeta (cell extract)
T4 sequence (looked up): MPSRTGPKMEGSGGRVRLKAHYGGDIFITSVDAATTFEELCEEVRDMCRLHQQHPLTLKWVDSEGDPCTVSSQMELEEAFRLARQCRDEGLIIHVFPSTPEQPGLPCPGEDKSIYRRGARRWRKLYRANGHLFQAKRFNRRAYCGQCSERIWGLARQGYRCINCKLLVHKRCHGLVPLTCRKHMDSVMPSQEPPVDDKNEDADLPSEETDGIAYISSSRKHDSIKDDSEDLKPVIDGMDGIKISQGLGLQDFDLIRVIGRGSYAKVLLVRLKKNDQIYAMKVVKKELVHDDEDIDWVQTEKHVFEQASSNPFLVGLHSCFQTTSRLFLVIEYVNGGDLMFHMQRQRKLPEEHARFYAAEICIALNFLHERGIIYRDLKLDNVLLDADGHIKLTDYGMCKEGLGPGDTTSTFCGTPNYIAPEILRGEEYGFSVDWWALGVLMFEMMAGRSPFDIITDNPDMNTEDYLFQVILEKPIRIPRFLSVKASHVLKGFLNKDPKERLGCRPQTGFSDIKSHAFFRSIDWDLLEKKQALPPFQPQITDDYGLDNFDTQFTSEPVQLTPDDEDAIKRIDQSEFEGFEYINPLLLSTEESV

[6] = molecular target: T4, PKC-ζ in extracts of human cell lines; assay: as above; remark: listed apart in the source
[7] = molecular target: T5, PKC-ε in extracts of human cell lines (human, UniProt Q02156 1-737); assay: Western-blot competition, cell extracts: PRE at 10X/20X the anti-PKC epsilon primary antibody concentration competes with that antibody; band densitometry (lower band = PRE bound)
T5 construct: Denatured on the Western blot membrane; also called PKC-epsilon (cell extract)
T5 sequence (looked up): T3 sequence (looked up)

[8] = molecular target: T2, PKC-ι in extracts of human cell lines; assay: Western-blot competition, cell extracts: PRE at 10X/20X the anti-PKC iota primary antibody concentration competes with that antibody; band densitometry (lower band = PRE bound); remark: listed apart in the source
[9] = molecular target: T6, PKC-βII, purified isoform (UniProt P05771-2 1-673); assay: purified isoform competition ELISA, summary grade
T6 construct: also called PKC-beta II; beta 2
T6 sequence (P05771 other isoform, or with tags, fused parts or gaps limits assumed): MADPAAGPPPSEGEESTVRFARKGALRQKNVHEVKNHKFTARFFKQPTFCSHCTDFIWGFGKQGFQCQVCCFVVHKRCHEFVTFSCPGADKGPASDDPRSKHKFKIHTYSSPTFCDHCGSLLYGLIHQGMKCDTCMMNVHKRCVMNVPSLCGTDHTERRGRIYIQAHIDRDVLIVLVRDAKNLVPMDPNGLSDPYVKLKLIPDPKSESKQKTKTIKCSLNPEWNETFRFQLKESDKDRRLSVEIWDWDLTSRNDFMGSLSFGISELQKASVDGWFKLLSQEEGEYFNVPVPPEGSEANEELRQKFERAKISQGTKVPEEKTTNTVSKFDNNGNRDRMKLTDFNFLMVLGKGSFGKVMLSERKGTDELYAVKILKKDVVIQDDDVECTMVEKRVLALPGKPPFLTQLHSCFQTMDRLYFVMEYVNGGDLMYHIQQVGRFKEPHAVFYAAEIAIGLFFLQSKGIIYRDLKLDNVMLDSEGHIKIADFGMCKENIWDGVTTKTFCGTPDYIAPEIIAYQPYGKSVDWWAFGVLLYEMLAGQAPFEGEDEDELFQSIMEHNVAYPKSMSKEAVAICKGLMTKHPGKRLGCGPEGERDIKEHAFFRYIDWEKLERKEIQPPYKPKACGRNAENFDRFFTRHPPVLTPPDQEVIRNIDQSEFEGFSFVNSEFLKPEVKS

PKC-ε, purified isoform [10] = molecular target: T3, PKC-ε, purified isoform; assay: purified isoform competition ELISA, summary grade
[11] = molecular target: T7, PKC-βI in extracts of human cell lines (human, UniProt P05771-1 2-671); assay: Western-blot competition, cell extracts: PRE at 10X/20X the anti-PKC beta I primary antibody concentration competes with that antibody; band densitometry (lower band = PRE bound)
T7 construct: Denatured on the Western blot membrane; beta I splice form; also called PKC-beta I (cell extract)
T7 sequence (P05771 2-671 limits assumed): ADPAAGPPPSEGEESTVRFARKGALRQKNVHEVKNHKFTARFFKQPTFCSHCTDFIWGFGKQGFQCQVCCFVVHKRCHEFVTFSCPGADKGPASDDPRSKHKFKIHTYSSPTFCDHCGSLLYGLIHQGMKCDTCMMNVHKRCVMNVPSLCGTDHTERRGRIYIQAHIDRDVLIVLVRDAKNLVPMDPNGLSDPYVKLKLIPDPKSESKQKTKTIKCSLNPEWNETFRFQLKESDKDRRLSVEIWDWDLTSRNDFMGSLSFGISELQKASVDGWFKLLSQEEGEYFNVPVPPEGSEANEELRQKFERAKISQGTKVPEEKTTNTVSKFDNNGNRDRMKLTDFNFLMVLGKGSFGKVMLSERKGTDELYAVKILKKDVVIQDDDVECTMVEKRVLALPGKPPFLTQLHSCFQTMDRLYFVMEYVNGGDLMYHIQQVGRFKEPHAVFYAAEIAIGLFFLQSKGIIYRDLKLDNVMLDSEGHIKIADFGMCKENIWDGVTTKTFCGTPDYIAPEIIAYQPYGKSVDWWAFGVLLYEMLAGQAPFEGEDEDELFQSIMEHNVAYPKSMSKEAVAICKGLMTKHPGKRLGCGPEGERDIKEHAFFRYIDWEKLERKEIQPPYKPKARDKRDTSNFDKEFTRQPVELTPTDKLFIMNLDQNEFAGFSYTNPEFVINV

[12] = molecular target: T2, PKC-ι in extracts of human cell lines; assay: Western-blot competition, cell extracts: PRE at 10X/20X the anti-PKC iota primary antibody concentration competes with that antibody; band densitometry (lower band = PRE bound); remark: listed apart in the source
[13] = molecular target: T4, PKC-ζ in extracts of human cell lines; assay: Western-blot competition, cell extracts: PRE at 10X/20X the anti-PKC zeta primary antibody concentration competes with that antibody; band densitometry (lower band = PRE bound); remark: listed apart in the source
[14] = molecular target: T4, PKC-ζ in extracts of human cell lines; assay: as above; remark: listed apart in the source
[15] = molecular target: T2, PKC-ι in extracts of human cell lines; assay: Western-blot competition, cell extracts: PRE at 10X/20X the anti-PKC iota primary antibody concentration competes with that antibody; band densitometry (lower band = PRE bound); remark: listed apart in the source
[16] = molecular target: T4, PKC-ζ in extracts of human cell lines; assay: Western-blot competition, cell extracts: PRE at 10X/20X the anti-PKC zeta primary antibody concentration competes with that antibody; band densitometry (lower band = PRE bound); remark: listed apart in the source
[17] = molecular target: T2, PKC-ι in extracts of human cell lines; assay: Western-blot competition, cell extracts: PRE at 10X/20X the anti-PKC iota primary antibody concentration competes with that antibody; band densitometry (lower band = PRE bound); remark: listed apart in the source
[18] = molecular target: T2, PKC-ι in extracts of human cell lines; assay: as above; remark: listed apart in the source

T1 sequence (P05771 whole entry, canonical isoform): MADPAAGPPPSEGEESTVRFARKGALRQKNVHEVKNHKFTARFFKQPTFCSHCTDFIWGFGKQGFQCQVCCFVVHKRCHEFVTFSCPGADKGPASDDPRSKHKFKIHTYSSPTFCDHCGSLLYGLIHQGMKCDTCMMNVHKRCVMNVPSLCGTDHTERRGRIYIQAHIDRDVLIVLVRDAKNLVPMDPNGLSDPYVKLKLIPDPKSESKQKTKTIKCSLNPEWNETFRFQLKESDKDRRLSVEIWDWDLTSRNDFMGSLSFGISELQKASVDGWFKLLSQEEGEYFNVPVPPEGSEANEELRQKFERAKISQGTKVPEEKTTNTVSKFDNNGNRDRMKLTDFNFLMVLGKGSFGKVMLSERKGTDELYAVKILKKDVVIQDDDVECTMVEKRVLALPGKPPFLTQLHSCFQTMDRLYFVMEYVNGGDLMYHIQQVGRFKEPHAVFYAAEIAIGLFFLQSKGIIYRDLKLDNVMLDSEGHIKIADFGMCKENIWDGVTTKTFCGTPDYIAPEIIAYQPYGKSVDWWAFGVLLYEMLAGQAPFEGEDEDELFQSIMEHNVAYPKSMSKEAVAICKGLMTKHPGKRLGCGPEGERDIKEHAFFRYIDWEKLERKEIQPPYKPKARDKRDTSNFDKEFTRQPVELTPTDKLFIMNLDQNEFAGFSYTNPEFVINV

B1: PRE 8 (peptide)
peptide: ILEDKGGDAQNLIGISI
notes: also called peptide recognition element 8
B1: no binding (PKC-βI, purified isoform).

B2: PRE 4 (peptide)
peptide: Ac-KDAQNLIGISI-NH2
notes: also called peptide recognition element 4
B2: binds [1].

B3: PRE 11 (peptide)
peptide: Ac-RDAQNLIGISI-NH2
notes: also called peptide recognition element 11
With B3 the relative binding capacity (PKC-ε, purified isoform [2]) was 13%, the relative binding capacity (PKC-ε, purified isoform [3]) was 2.25% and the relative binding capacity (PKC-ε, purified isoform [4]) was 9.84%. B3: no binding (tested: 20X the primary antibody concentration) [5].

B4: PRE 13 (peptide)
peptide: Ac-RDAQNLI-NH2
notes: Ac-RDAQNLI-NH2; also called peptide recognition element 13
With B4 the binding result [6] was “no binding (tested: 20X the primary antibody concentration)”, the binding result [7] was “no binding (tested: 20X the primary antibody concentration)” and the relative binding capacity (PKC-ε, purified isoform [2]) was 0%. For the same binder, the binding result [8] was “no binding (tested: 20X the primary antibody concentration)”, the relative binding capacity (PKC-ε, purified isoform [3]) was 0% and the relative binding capacity (PKC-ε, purified isoform [4]) was 0.85%. B4: no binding [9]; no binding (PKC-βI, purified isoform); no binding (PKC-ε, purified isoform [10]). B4: no binding (tested: 20X the primary antibody concentration) [11].

B5: PRE 1 (peptide)
peptide: RRKKGGKDFVVKR
notes: also called peptide recognition element 1
B5: no binding (tested: 20X the primary antibody concentration) [12]; binds [13]; no binding [9].

B6: PRE 5 (peptide)
peptide: Ac-AKGIQEVKGGKDAQNLIGISI-NH2
notes: also called peptide recognition element 5
B6: binds [14].

B7: PRE 6 (peptide)
peptide: Ac-KDANQLIGISI-NH2
notes: also called peptide recognition element 6
B7: no binding (tested: 20X the primary antibody concentration) [15]; no binding (tested: 20X the primary antibody concentration) [16]; no binding [9].

B8: PRE 3 (peptide)
peptide: Ac-AKGIQEVKGGDAQNLIGISI-NH2
notes: also called peptide recognition element 3
Binder B8 has a relative binding capacity (PKC-ε, purified isoform [2]) of 31.5%, a relative binding capacity (PKC-ε, purified isoform [3]) of 34% and a relative binding capacity (PKC-ε, purified isoform [4]) of 31%. B8: binds [17].

B9: PRE 7 (peptide)
peptide: Ac-ISIGILQNADK-NH2
notes: also called peptide recognition element 7
In the case of B9, the relative binding capacity (PKC-ε, purified isoform [2]) is reported as 14%, the binding result [18] is reported as “no binding (tested: 20X the primary antibody concentration)” and the relative binding capacity (PKC-ε, purified isoform [3]) is reported as 8.04%. It also gave a relative binding capacity (PKC-ε, purified isoform [4]) of 3.78%.
